Assay results: patent US20210196823A1, “Methods of Treating Metabolic Disease” (Pfizer Inc., priority 2018, published 2021)
“Also recorded” adds a separate entry of the source.

Experiments:
Format in all cases: cell-based
Huh7 cells [1] = assay: HAMP and ID1 qRT-PCR in Huh7 cells treated with BMPs with or without mouse ERFE; settings: 2 nM BMP 2/6, BMP5, BMP6 or BMP7 + 10 μg/ml mouse ERFE, 6 h, serum-free media
Procedure: (§1) (b) Gene expression microarray: Microarray analysis of Huh7 cells treated with mouse or human erythroferrone was carried out to test the activity of erythroferrone on the BMP/SMAD signalling pathway. Generally cell treatments were carried out according to the following protocol: Huh7 and HepG2 were cultured in Dulbecco's Modified Eagle's Medium—High Glucose (Sigma), supplemented with 10% Fetal Bovine Serum (Sigma), 1% Penicillin-Streptomycin (Sigma) and 1% L-Glutamine (Sigma), unless otherwise indicated. Cells were plated 24 h before treatments in 24-well (gene expression analysis) or 12-well (protein analysis) cell culture plates. At the time of treatment, cells were washed with PBS and fresh media was added.
(c) RNA isolation, cDNA synthesis and qRT-PCR: Suppression of several BMP-target genes: HAMP, ID1, ID3, SMAD6 and SMAD7 was further confirmed by qRT-PCR. Cells were lysed and RNA was isolated using the RNeasy Plus kit (Qiagen), followed by RNA quantification and quality assessment using Nanodrop (Thermo Fisher). cDNA was synthesized using the High Capacity RNA-to-cDNA kit (Applied Biosystems). Gene expression was assessed using quantitative real-time PCR with Taqman Gene Expression Master Mix and inventoried Taqman Gene expression assays (Applied Biosystems) specific for the genes of interest according to the manufacturer's instructions. […]

Huh7 cells [2] = assay: qRT-PCR of BMP/SMAD target genes in Huh7 cells treated with ERFE; settings: Huh7, mouse ERFE 10 μg/ml vs vehicle
Procedure: as §1
(c) RNA isolation, cDNA synthesis and qRT-PCR: Suppression of several BMP-target genes: HAMP, ID1, ID3, SMAD6 and SMAD7 was further confirmed by qRT-PCR. Cells were lysed and RNA was isolated using the RNeasy Plus kit (Qiagen), followed by RNA quantification and quality assessment using Nanodrop (Thermo Fisher). cDNA was synthesized using the High Capacity RNA-to-cDNA kit (Applied Biosystems). Gene expression was assessed using quantitative real-time PCR with Taqman Gene Expression Master Mix and inventoried Taqman Gene expression assays (Applied Biosystems) specific for the genes of interest according to the manufacturer's instructions.

C2C12 Bre-Luc cells = assay: BMP/SMAD signalling output in C2C12 Bre-Luc cells; settings: 24 h
Procedure: As HAMP can be stimulated by a variety of ligands, we further tested the effect of ERFE in cells treated with various BMPs by measuring BMP/SMAD signalling output in C2C12 Bre-Luc cells. C2C12 Bre-Luc cells were treated with 2 nM of BMP in combination with a gradient of mouse ERFE concentrations (7.5 pM to 0.5 μM) for 24 h, and luminescence measured in each well. […] Analogous data confirmed suppression of HAMP and ID1 in cells treated with ERFE and BMP 2/6, BMP5, BMP6 and BMP7, FIG. 3F.
The inhibitory effect of EFE on selected BMPs was tested in-vitro in three different cell types, C2C12, Huh7 and HepG2. Huh7 (FIG. 3G, 3H) and HepG2 (FIGS. 3J, 3K) cells were treated with 2 nM of BMPs, alone or in combination with 10 μg/ml of mouse ERFE, in serum-free media, and analysed 6 h after treatment. Gene expression of HAMP and ID1 was measured by qRT-PCR. Results expressed as fold change relative to non-treated cells from 3 independent experiments. Statistical significance was analysed for each pair of BMP treatments. (*p<0.05, **p<0.01, ***p<0.001, ****p<0.0001, Student's t test). Additionally we tested the effect of ERFE in cells treated with various BMPs by measuring BMP/SMAD signalling output in C2C12 Bre-Luc cells (FIG. 3E). C2C12 Bre-Luc cells were treated with 2 nM of BMP in combination with a gradient of mouse ERFE concentrations (7.5 pM to 0.5 μM) for 24 h, and luminescence measured in each well.

Huh7 cells [3] = assay: Gene expression microarray of Huh7 cells treated with ERFE; settings: Huh7, ERFE 10 μg/ml, 24 h
Procedure: as §1
For the purposes of gene expression microarray analysis RNA was isolated from the Huh7 cells using RNeasy Plus kit (Qiagen), this was followed by RNA quantification and quality assessment using a 2100 Bioanalyzer (Agilent). RNA was converted into biotin labelled cRNA for hybridization and gene expression analysed using the Human HT12v4.0 Expression Beadchip (Illumina) and the Illuminas's iScan Scanner. Raw data was normalised using the lumi package (Bioconductor) and compared using LIMMA (Bioconductor). Statistical significance was set at p<0.05.

B1: mouse ERFE: recombinant mouse erythroferrone (SEQ ID NO: 2); monoFC-muErfe is a monomeric FC murine ERFE fusion (protein, listed as Mus musculus)
chain: MASRRPVGARTLLACASLLAAMGLGVPESAEPVGTHARPQPPGAELPAPPANSPPEPIAHAHSVDPRDAWMLFVKQSDKGINSKRRSKARRLKLGLPGPPGPPGPQGPPGPFIPSEVLLKEFQLLLKGAVRQRESHLEHCTRDLPASGSPSRVPAAQELDSQDPGALLALLAATLAQGPRAPRVEAAFHCRLRRDVQVDRRALHELGIYYLPEVEGAFHRGPGLNLTSGQYTAPVAGFYALAATLHVALTEQPRKGPTRPRDRLRLLICIQSLCQHNASLETVMGLENSSELFISVNGVLYLQAGHYSVFLDNASGSSLTVRSGSHFSAILLGL
Huh7 cells [1]
  HAMP and ID1 expression / BMP/SMAD signalling in BMP-treated Huh7 cells: suppresses; also recorded: suppression
Huh7 cells [2]
  expression of BMP-target genes HAMP, ID1, ID3, SMAD6 and SMAD7: Suppression
  expression of FGA (JAK/STAT3 target gene): no changes
C2C12 Bre-Luc cells; 2 nM BMP2, mouse ERFE 7.5 pM to 0.5 μM
  BMP2 activity (luminescence): no effect
C2C12 Bre-Luc cells; 2 nM BMP4, mouse ERFE 7.5 pM to 0.5 μM
  BMP4 activity (luminescence): no effect
C2C12 Bre-Luc cells; 2 nM BMP5, mouse ERFE 7.5 pM to 0.5 μM
  activation of BMP signalling by BMP5 (luminescence): dose-dependent decrease
C2C12 Bre-Luc cells; 2 nM BMP6, mouse ERFE 7.5 pM to 0.5 μM
  activation of BMP signalling by BMP6 (luminescence): dose-dependent decrease
C2C12 Bre-Luc cells; 2 nM BMP7, mouse ERFE 7.5 pM to 0.5 μM
  activation of BMP signalling by BMP7 (luminescence): dose-dependent decrease
C2C12 Bre-Luc cells; 2 nM BMP9, mouse ERFE 7.5 pM to 0.5 μM
  BMP9 activity (luminescence): no effect
Huh7 cells [3]
  target genes of the JAK/STAT3 pathway: No changes
Huh7 cells [3]; 5 are BMP/SMAD targets ID1, ID2, ID3, SMAD6, HAMP
  number of suppressed genes: 12
